The source of these data is US20160108128A1 (CANCER RESEARCH TECHNOLOGY, published 2016).

For test [1], the target named is T1, murine Jagged 1, full length, on B16F10 cells (mouse, UniProt Q9QXX0 34-1218).
T1 construct: whole, on cells; GFP co-expressed; also called mJ1; B16F10-mJAG1
Briefly: FACS, B16F10-mJAG1 cells, anti-human-APC. The protocol:
FIG. 19. […] Samples were analysed by FACS and the mean fluorescence intensities (MFI) were plotted.
(§1) HEK293 cells transfected with human J1, J2 or FLAG-EGFP-tagged DSL-EGF3 constructs, B16F10 cells transfected with human DLL4 or mouse J1, and human cancer cell lines, were stained with either purified anti-J1 antibodies at 10 μg/ml diluted in FACS wash buffer (2% FBS in PBS+0.1% sodium azide) or neat hybridoma supernatants followed by a allophycocyanin (APC)-conjugated secondary antibody at 1:200 dilution: for murine primary antibodies, used goat anti-mouse-APC (eBioscience); for humanised and chimeric antibodies used goat anti-human IgG (H+L) secondary antibody (Jackson ImmunoResearch Laboratories). After washing, samples were fixed with 1% paraformaldehyde (in PBS) and acquired with a FACSCalibur. FACS data were analysed with FlowJo software (TreeStar Inc.).

Test [2] deals with T2, human Jagged 2, full length, on HEK293 cells (human, UniProt Q9Y219 24-1238).
T2 construct: whole, on cells; also called J2; hJ2
T2 sequence (Q9Y219 24-1238): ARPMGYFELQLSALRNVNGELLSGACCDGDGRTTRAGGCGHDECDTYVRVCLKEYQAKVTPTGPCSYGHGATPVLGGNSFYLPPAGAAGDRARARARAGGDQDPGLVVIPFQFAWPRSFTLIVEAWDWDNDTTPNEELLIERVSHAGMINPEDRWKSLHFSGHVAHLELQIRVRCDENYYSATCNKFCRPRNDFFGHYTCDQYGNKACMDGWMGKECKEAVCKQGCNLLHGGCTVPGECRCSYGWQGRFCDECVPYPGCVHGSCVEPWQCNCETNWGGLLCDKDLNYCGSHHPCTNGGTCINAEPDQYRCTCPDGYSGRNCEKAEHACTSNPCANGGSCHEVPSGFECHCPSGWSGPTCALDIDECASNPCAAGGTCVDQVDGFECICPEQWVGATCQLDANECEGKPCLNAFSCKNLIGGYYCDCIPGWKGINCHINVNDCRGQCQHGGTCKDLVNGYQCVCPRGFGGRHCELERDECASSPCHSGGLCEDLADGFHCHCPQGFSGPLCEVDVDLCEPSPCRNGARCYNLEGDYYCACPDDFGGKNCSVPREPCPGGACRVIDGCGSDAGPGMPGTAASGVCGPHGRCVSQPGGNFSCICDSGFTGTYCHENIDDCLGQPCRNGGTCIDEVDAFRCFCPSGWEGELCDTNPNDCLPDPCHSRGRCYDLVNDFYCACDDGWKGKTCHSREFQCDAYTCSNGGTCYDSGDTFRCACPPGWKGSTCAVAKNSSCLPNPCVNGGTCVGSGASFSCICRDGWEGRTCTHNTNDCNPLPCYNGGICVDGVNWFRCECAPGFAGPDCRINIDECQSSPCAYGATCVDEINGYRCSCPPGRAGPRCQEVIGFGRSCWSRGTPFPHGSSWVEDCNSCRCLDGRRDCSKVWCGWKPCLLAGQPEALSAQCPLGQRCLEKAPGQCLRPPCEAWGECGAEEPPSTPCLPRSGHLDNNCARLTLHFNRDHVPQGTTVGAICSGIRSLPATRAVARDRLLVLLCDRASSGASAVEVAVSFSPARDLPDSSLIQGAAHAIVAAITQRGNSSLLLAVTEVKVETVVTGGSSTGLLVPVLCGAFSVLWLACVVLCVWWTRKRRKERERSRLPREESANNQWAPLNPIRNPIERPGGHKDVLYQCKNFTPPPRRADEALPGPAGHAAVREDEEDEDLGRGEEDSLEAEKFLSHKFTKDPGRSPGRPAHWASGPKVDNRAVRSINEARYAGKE
Nature of the test: FACS, 293-JAG2 cells, anti-human-APC. The protocol: FIG. 18. […] Samples were analysed by FACS and the mean fluorescence intensities (MFI) were plotted. […] With the exception of J1-65D variants 13-16, all the remaining antibodies effectively bound the human J1 protein.
as §1

The target of test [3] is T3, J1 DSL-EGF3 soluble recombinant protein (human Jagged 1 amino acids 185-335) (human, UniProt P78504 185-335).
T3 construct: biotinylated in the CD46 ELISA; also called J1-DE3; DSL+EGF1-3
T3 sequence (P78504 185-335, form in doubt): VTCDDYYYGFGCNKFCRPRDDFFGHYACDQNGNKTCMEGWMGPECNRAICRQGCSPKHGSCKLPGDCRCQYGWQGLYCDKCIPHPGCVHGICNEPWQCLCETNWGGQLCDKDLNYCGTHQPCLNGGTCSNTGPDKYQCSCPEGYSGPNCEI
Nature of the test: affinity to the immunogen J1-DE3; method not stated.

For orientation: Kd means the constant that tells how readily two partners part at equilibrium.

T1 sequence (Q9QXX0 34-1218, one chain of several): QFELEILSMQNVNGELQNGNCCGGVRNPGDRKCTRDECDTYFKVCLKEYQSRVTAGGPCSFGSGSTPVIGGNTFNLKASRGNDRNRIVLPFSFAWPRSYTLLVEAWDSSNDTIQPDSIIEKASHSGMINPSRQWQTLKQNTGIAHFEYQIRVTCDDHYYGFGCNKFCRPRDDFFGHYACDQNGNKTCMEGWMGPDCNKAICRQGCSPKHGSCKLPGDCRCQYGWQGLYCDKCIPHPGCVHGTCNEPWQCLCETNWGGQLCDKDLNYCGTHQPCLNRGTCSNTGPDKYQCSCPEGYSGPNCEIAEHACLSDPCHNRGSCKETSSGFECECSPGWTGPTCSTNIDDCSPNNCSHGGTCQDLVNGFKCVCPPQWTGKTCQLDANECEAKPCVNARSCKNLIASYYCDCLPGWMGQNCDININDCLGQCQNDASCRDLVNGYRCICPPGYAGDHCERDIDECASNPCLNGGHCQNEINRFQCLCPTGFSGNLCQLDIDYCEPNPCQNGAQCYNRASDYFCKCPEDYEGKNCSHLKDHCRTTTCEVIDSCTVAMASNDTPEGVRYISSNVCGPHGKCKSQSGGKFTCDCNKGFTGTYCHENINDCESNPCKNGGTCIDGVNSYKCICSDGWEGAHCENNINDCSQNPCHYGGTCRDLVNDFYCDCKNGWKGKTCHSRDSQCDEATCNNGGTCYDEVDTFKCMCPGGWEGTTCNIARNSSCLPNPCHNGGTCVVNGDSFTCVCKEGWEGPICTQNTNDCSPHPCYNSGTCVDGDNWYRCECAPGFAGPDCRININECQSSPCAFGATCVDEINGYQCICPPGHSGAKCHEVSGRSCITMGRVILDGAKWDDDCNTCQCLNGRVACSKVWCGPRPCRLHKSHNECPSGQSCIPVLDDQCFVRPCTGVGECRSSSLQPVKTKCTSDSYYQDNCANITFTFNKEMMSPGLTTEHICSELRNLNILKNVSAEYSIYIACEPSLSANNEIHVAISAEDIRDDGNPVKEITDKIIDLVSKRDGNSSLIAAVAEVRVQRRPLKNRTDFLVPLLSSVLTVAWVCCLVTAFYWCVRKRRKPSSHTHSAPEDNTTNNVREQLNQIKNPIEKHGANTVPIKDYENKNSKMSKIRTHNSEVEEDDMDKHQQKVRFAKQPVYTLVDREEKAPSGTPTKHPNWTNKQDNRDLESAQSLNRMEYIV

B1: J1-65D variant 6 (antibody, human IgG1, V domains shown)
VH: QVQLVQSGAELKKPGSSVKVSCKASGYTFTDYEMHWVRQAPGQGLEWMGAIQPGGGGTAYAQKFKGRVTLTADKSTSTAYMELSSLRSEDTAVYYCTRRGYDDYPFAYWGQGTLVTVSS
VL: DIQMTQSPSSLSASVGDRVTITCRASGNIHNYLAWYQQKPGKAPKLLIYNAKTLADAVPSRFSGSGSGTDYTLTISSLQPEDFATYYCQHFWSAPWTFGGGTKLEIKR
notes: human IgG1; also called J1-65DV6; V6
As for B1, the binding result in test [1] and in test [2] was “no binding (tested: 10 ug/ml)” in each case. The dissociation constant (Kd) in test [3] was found to be 0.223 nM.

B2: J1-65D variant 3 (antibody, human IgG1, V domains shown)
VH: QVQLVQSGAEVKKPGSSVKVSCKASGYTFTDYEMHWVRQAPGQGLEWMGAIQPGGGGTAYAQKFQGRVTLTADKSTSTAYMELSSLRSEDTAVYYCTRRGYDDYPFAYWGQGTLVTVSS
VL: DIQMTQSPSSLSASVGDRVTITCRASGNIHNYLAWYQQKPGKAPKLLIYNAKTLADDVPSRFSGSGSGTDYTLTISSLQPEDFATYYCQHFWSAPWTFGGGTKLEIKR
notes: human IgG1; also called J1-65DV3; V3
As for B2, the binding result in test [1] and in test [2] was “no binding (tested: 10 ug/ml)” each time. Also, the equilibrium dissociation constant (Kd) in test [3] was 0.158 nM.

B3: J1-65D variant 2 (antibody, human IgG1, V domains shown)
VH: QVQLVQSGAELKKPGSSVKVSCKASGYTFTDYEMHWVRQAPGQGLEWMGAIQPGGGGTAYAQKFKGRVTLTADKSTSTAYMELSSLRSEDTAVYYCTRRGYDDYPFAYWGQGTLVTVSS
VL: DIQMTQSPSSLSASVGDRVTITCRASGNIHNYLAWYQQKPGKAPKLLIYNAKTLADDVPSRFSGSGSGTDYTLTISSLQPEDFATYYCQHFWSAPWTFGGGTKLEIKR
notes: human IgG1; also called J1-65DV2; V2
Turning to B3, the binding result in test [1] and in test [2] was “no binding (tested: 10 ug/ml)” throughout. In test [3], the equilibrium dissociation constant (Kd) came out at 0.165 nM.

B4: J1-65D variant 4 (antibody, human IgG1, V domains shown)
VH: QVQLVQSGAEVKKPGSSVKVSCKASGYTFTDYEMHWVRQAPGQGLEWMGAIQPGGGGTAYAQKFQGRVTITADKSTSTAYMELSSLRSEDTAVYYCTRRGYDDYPFAYWGQGTLVTVSS
VL: DIQMTQSPSSLSASVGDRVTITCRASGNIHNYLAWYQQKPGKAPKLLIYNAKTLADDVPSRFSGSGSGTDYTLTISSLQPEDFATYYCQHFWSAPWTFGGGTKLEIKR
notes: human IgG1; also called J1-65DV4; V4
For the molecule B4, the binding result in test [1] and in test [2] was “no binding (tested: 10 ug/ml)” in each case. Also, in test [3], the Kd worked out at 0.0949 nM.

B5: J1-65D variant 1 (antibody, human IgG1, V domains shown)
VH: QVQLVQSGAELKKPGSSVKVSCKASGYTFTDYEMHWVRQAPGQGLEWMGAIQPGGGGTAYNQKFKGRVTLTADKSTSTAYMELSSLRSEDTAVYYCTRRGYDDYPFAYWGQGTLVTVSS
VL: DIQMTQSPSSLSASVGDRVTITCRASGNIHNYLAWYQQKPGKAPKLLIYNAKTLADDVPSRFSGSGSGTDYTLTISSLQPEDFATYYCQHFWSAPWTFGGGTKLEIKR
notes: human IgG1; also called J1-65DV1; V1
Take B5: the binding result in test [1] and in test [2] was “no binding (tested: 10 ug/ml)” in each case. Moreover, the Kd in test [3] amounted to 0.15 nM.

B6: J1-183D variant 6 (antibody, human IgG1, V domains shown)
VH: QVQLVQSGAELKKPGASVKVSCKVSGYAFTDYAIHWIRQAPGQGLEWMGIINTYYGDSKYAQKFQGRVTMTVDTSTSTAYMELSSLRSEDTAVYYCARGYDGFAYWGQGTLVTVSS
VL: DIQMTQSPSSLSASVGDRVTITCRTSENIYSYLTWYQQKPGKAPKLLIYNAKTLASGVPSRFSGSGSGTDFTLTISSLQPEDFATYYCQHHYDIPWTFGGGTKLEIKR
notes: human IgG1; also called J1-183DV6; V6
On to B6, for which the binding result in test [1] and in test [2] was “no binding (tested: 10 ug/ml)” each time. Besides, the equilibrium dissociation constant (Kd) in test [3] was found to be 1.39 nM.

B7: J1-183D variant 12 (antibody, human IgG1, V domains shown)
VH: QVQLVQSGAEVKKPGASVKVSCKASGYTFTDYAIHWVRQAPGQGLEWMGIINTYYGDSKYAQKFQGRVTMTVDTSTSTAYMELSSLRSEDTAVYYCARGYDGFAYWGQGTLVTVSS
VL: DIQMTQSPSSLSASVGDRVTITCRTSENIYSYLTWYQQKPGKAPKLLIYNAKILDSGVPSRFSGSGSGTDFTLTISSLQPEDFATYYCQHHYDIPWTFGGGTKLEIKR
notes: human IgG1; also called J1-183DV12; V12
B7: the binding result in test [1] and in test [2] was “no binding (tested: 10 ug/ml)” each time. The Kd in test [3] was determined as 2.61 nM.

B8: J1-183D variant 9 (antibody, human IgG1, V domains shown)
VH: QVQLVQSGAELKKPGASVKVSCKVSGYAFTDYAIHWIRQAPGQGLEWMGIINTYYGDSKYNQKFKDRVTMTVDKSTSTAYMELSSLRSEDTAVYYCARGYDGFAYWGQGTLVTVSS
VL: DIQMTQSPSSLSASVGDRVTITCRTSENIYSYLTWYQQKPGKAPKLLIYNAKILDSGVPSRFSGSGSGTDFTLTISSLQPEDFATYYCQHHYDIPWTFGGGTKLEIKR
notes: human IgG1; also called J1-183DV9; V9
Turning to B8, the binding result in test [1] and in test [2] was “no binding (tested: 10 ug/ml)” each time. Besides, the Kd in test [3] came to 0.68 nM.

B9: J1-183D variant 14 (antibody, human IgG1, V domains shown)
VH: QVQLVQSGAELKKPGASVKVSCKVSGYAFTDYAIHWIRQAPGQGLEWMGIINTYYGDSKYAQKFQGRVTMTVDTSTSTAYMELSSLRSEDTAVYYCARGYDGFAYWGQGTLVTVSS
VL: DIQMTQSPSSLSASVGDRVTITCRTSENIYSYLTWYQQKPGKAPKLLIYHAKILDSGVPSRFSGSGSGTDFTLTISSLQPEDFATYYCQHHYDIPWTFGGGTKLEIKR
notes: human IgG1; also called J1-183DV14; V14
Take B9: the binding result in test [1] and in test [2] was “no binding (tested: 10 ug/ml)” each time. For the same molecule, the Kd in test [3] amounted to 3.91 nM.

B10: J1-183D variant 7 (antibody, human IgG1, V domains shown)
VH: QVQLVQSGAELKKPGASVKVSCKVSGYAFTDYAIHWVRQAPGQGLEWMGIINTYYGDSKYAQKFQGRVTMTVDTSTSTAYMELSSLRSEDTAVYYCARGYDGFAYWGQGTLVTVSS
VL: DIQMTQSPSSLSASVGDRVTITCRTSENIYSYLTWYQQKPGKAPKLLIYNAKTLASGVPSRFSGSGSGTDFTLTISSLQPEDFATYYCQHHYDIPWTFGGGTKLEIKR
notes: human IgG1; also called J1-183DV7; V7
On to B10, for which the binding result in test [1] and in test [2] was “no binding (tested: 10 ug/ml)” each time. The Kd in test [3] came out at 1.26 nM.

B11: J1-183D variant 16 (antibody, human IgG1, V domains shown)
VH: QVQLVQSGAEVKKPGASVKVSCKASGYTFTDYAIHWVRQAPGQGLEWMGIINTYYGDSKYAQKFQGRVTMTVDTSTSTAYMELSSLRSEDTAVYYCARGYDGFAYWGQGTLVTVSS
VL: DIQMTQSPSSLSASVGDRVTITCRTSENIYSYLTWYQQKPGKAPKLLIYHAKILDSGVPSRFSGSGSGTDFTLTISSLQPEDFATYYCQHHYDIPWTFGGGTKLEIKR
notes: human IgG1; also called J1-183DV16; V16
As for B11, the binding result in test [1] and in test [2] was “no binding (tested: 10 ug/ml)” each time. In addition, the equilibrium dissociation constant (Kd) in test [3] was found to be 4.86 nM.

B12: J1-183D variant 13 (antibody, human IgG1, V domains shown)
VH: QVQLVQSGAELKKPGASVKVSCKVSGYAFTDYAIHWIRQAPGQGLEWMGIINTYYGDSKYNQKFKDRVTMTVDKSTSTAYMELSSLRSEDTAVYYCARGYDGFAYWGQGTLVTVSS
VL: DIQMTQSPSSLSASVGDRVTITCRTSENIYSYLTWYQQKPGKAPKLLIYHAKILDSGVPSRFSGSGSGTDFTLTISSLQPEDFATYYCQHHYDIPWTFGGGTKLEIKR
notes: human IgG1; also called J1-183DV13; V13
In the case of B12, the binding result in test [1] and in test [2] was “no binding (tested: 10 ug/ml)” throughout. The Kd in test [3] worked out at 1.5 nM.

B13: J1-183D variant 11 (antibody, human IgG1, V domains shown)
VH: QVQLVQSGAELKKPGASVKVSCKVSGYAFTDYAIHWVRQAPGQGLEWMGIINTYYGDSKYAQKFQGRVTMTVDTSTSTAYMELSSLRSEDTAVYYCARGYDGFAYWGQGTLVTVSS
VL: DIQMTQSPSSLSASVGDRVTITCRTSENIYSYLTWYQQKPGKAPKLLIYNAKILDSGVPSRFSGSGSGTDFTLTISSLQPEDFATYYCQHHYDIPWTFGGGTKLEIKR
notes: human IgG1; also called J1-183DV11; V11
On to B13, for which the binding result in test [1] and in test [2] was “no binding (tested: 10 ug/ml)” each time. The dissociation constant Kd in test [3] stood at 2.82 nM.

B14: J1-183D variant 8 (antibody, human IgG1, V domains shown)
VH: QVQLVQSGAEVKKPGASVKVSCKASGYTFTDYAIHWVRQAPGQGLEWMGIINTYYGDSKYAQKFQGRVTMTVDTSTSTAYMELSSLRSEDTAVYYCARGYDGFAYWGQGTLVTVSS
VL: DIQMTQSPSSLSASVGDRVTITCRTSENIYSYLTWYQQKPGKAPKLLIYNAKTLASGVPSRFSGSGSGTDFTLTISSLQPEDFATYYCQHHYDIPWTFGGGTKLEIKR
notes: human IgG1; also called J1-183DV8; V8
On to B14, for which the binding result in test [1] and in test [2] was “no binding (tested: 10 ug/ml)” throughout. In addition, the Kd in test [3] worked out at 1.48 nM.

B15: J1-183D variant 15 (antibody, human IgG1, V domains shown)
VH: QVQLVQSGAELKKPGASVKVSCKVSGYAFTDYAIHWVRQAPGQGLEWMGIINTYYGDSKYAQKFQGRVTMTVDTSTSTAYMELSSLRSEDTAVYYCARGYDGFAYWGQGTLVTVSS
VL: DIQMTQSPSSLSASVGDRVTITCRTSENIYSYLTWYQQKPGKAPKLLIYHAKILDSGVPSRFSGSGSGTDFTLTISSLQPEDFATYYCQHHYDIPWTFGGGTKLEIKR
notes: human IgG1; also called J1-183DV15; V15
On to B15, for which the binding result in test [1] and in test [2] was “no binding (tested: 10 ug/ml)” in each case. Further, in test [3], the equilibrium dissociation constant (Kd) stood at 5.47 nM.
